Starred links: 1 amine or outer side, 2 acyl side, 3 side chain; linkers in the order of their positions; H or OH if unused. Non-standard residues stand in square brackets, D forms with d. Groups on a side chain read outwards from the residue. No end group written: not given here. *: point of attachment. C20 diacid = O=C(O)CCCCCCCCCCCCCCCCCCC(=O)*; γGlu = O=C(O)[C@H](CCC(=O)[*:2])N[*:1]; NMeY = CN[C@@H](Cc1ccc(O)cc1)C(=O)O
T1: NPY2R
T1 sequence (P49146 1-381, species assumed, looked up): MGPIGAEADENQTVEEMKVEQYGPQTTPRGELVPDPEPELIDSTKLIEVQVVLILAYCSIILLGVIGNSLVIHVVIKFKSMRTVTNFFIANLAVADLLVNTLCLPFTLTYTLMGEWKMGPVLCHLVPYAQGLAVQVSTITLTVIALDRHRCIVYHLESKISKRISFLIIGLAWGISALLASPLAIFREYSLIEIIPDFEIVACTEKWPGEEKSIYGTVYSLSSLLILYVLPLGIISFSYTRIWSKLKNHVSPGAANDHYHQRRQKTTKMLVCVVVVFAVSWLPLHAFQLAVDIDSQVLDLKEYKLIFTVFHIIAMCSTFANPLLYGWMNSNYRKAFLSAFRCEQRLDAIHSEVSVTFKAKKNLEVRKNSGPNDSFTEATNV

T2: NPY5R
T2 sequence (Q15761 1-445, species assumed, looked up): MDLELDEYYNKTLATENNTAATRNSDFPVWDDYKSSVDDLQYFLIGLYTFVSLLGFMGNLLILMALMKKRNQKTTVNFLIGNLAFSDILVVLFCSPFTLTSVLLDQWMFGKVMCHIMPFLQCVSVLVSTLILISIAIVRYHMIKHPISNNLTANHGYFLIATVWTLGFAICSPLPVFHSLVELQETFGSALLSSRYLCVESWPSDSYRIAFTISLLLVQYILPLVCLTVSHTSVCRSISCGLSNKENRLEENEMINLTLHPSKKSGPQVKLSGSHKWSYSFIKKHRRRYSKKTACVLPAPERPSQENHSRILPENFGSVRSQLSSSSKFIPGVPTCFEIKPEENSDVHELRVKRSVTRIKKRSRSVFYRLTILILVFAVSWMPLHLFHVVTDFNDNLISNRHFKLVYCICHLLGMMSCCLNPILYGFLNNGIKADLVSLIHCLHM


How the values were obtained:
NPY2R = molecular target: T1, NPY2R; assay: cell-based or functional assay
NPY5R = molecular target: T2, NPY5R; assay: cell-based or functional assay

Row | Binder | NPY2R pEC50 (NPY2R) | NPY5R pEC50 (NPY5R)
1 | PKPEAPK([γGlu-γGlu-C20 diacid])KDASPEELNRYYADARHYLNWLTRQRF-NH2 (N-terminus assumed; SMILES CC(C)C[C@H](NC(=O)[C@H](Cc1ccc(O)cc1)NC(=O)[C@H](Cc1c[nH]cn1)NC(=O)[C@H](CCCNC(=N)N)NC(=O)[C@H](C)NC(=O)[C@H](CC(=O)O)NC(=O)[C@H](C)NC(=O)[C@H](Cc1ccc(O)cc1)NC(=O)[C@H](Cc1ccc(O)cc1)NC(=O)[C@H](CCCNC(=N)N)NC(=O)[C@H](CC(N)=O)NC(=O)[C@H](CC(C)C)NC(=O)[C@H](CCC(=O)O)NC(=O)[C@H](CCC(=O)O)NC(=O)[C@@H]1CCCN1C(=O)[C@H](CO)NC(=O)[C@H](C)NC(=O)[C@H](CC(=O)O)NC(=O)[C@H](CCCCN)NC(=O)[C@H](CCCCNC(=O)CC[C@H](NC(=O)CC[C@H](NC(=O)CCCCCCCCCCCCCCCCCCC(=O)O)C(=O)O)C(=O)O)NC(=O)[C@@H]1CCCN1C(=O)[C@H](C)NC(=O)[C@H](CCC(=O)O)NC(=O)[C@@H]1CCCN1C(=O)[C@H](CCCCN)NC(=O)[C@@H]1CCCN1)C(=O)N[C@@H](CC(N)=O)C(=O)N[C@@H](Cc1c[nH]c2ccccc12)C(=O)N[C@@H](CC(C)C)C(=O)N[C@H](C(=O)N[C@@H](CCCNC(=N)N)C(=O)N[C@@H](CCC(N)=O)C(=O)N[C@@H](CCCNC(=N)N)C(=O)N[C@@H](Cc1ccccc1)C(N)=O)[C@@H](C)O) [Compound A64] | 8.6 -Log(EC50, M) | 7.9 -Log(EC50, M)
2 | PKPEAPGK([γGlu-γGlu-C20 diacid])DASPEEWNRYKKDLRHYLNWLTRQRF-NH2 [Compound A69] | 10 -Log(EC50, M) | 8.3 -Log(EC50, M)
3 | PKPEAPGK([γGlu-γGlu-C20 diacid])DASPEEWNRKYKDLRHYLNWLTRQRF-NH2 [Compound A68] | 9.7 -Log(EC50, M) | 7.9 -Log(EC50, M)
4 | PKPEAPGK([γGlu-γGlu-C20 diacid])DASPKEWNRYYKDLRHYLNWLTRQRF-NH2 [Compound A73] | 10.3 -Log(EC50, M) | 8.6 -Log(EC50, M)
5 | PKPEKPGK([γGlu-γGlu-C20 diacid])DASPEEWNRYYKDLRHYLNWLTRQRF-NH2 (N-terminus assumed; SMILES CC(C)C[C@H](NC(=O)[C@H](CC(=O)O)NC(=O)[C@H](CCCCN)NC(=O)[C@H](Cc1ccc(O)cc1)NC(=O)[C@H](Cc1ccc(O)cc1)NC(=O)[C@H](CCCNC(=N)N)NC(=O)[C@H](CC(N)=O)NC(=O)[C@H](Cc1c[nH]c2ccccc12)NC(=O)[C@H](CCC(=O)O)NC(=O)[C@H](CCC(=O)O)NC(=O)[C@@H]1CCCN1C(=O)[C@H](CO)NC(=O)[C@H](C)NC(=O)[C@H](CC(=O)O)NC(=O)[C@H](CCCCNC(=O)CC[C@H](NC(=O)CC[C@H](NC(=O)CCCCCCCCCCCCCCCCCCC(=O)O)C(=O)O)C(=O)O)NC(=O)CNC(=O)[C@@H]1CCCN1C(=O)[C@H](CCCCN)NC(=O)[C@H](CCC(=O)O)NC(=O)[C@@H]1CCCN1C(=O)[C@H](CCCCN)NC(=O)[C@@H]1CCCN1)C(=O)N[C@@H](CCCNC(=N)N)C(=O)N[C@@H](Cc1c[nH]cn1)C(=O)N[C@@H](Cc1ccc(O)cc1)C(=O)N[C@@H](CC(C)C)C(=O)N[C@@H](CC(N)=O)C(=O)N[C@@H](Cc1c[nH]c2ccccc12)C(=O)N[C@@H](CC(C)C)C(=O)N[C@H](C(=O)N[C@@H](CCCNC(=N)N)C(=O)N[C@@H](CCC(N)=O)C(=O)N[C@@H](CCCNC(=N)N)C(=O)N[C@@H](Cc1ccccc1)C(N)=O)[C@@H](C)O) [Compound A74] | 10.3 -Log(EC50, M) | 9 -Log(EC50, M)
6 | PKPEAPGK([γGlu-γGlu-C20 diacid])DKSPEEWNRYYKDLRHYLNWLTRQRF-NH2 [Compound A66] | 10.3 -Log(EC50, M) | 8.3 -Log(EC50, M)
7 | PKPEK([γGlu-γGlu-C20 diacid])PGKDASPKEWNRYYKDLRHYLNWLTRQRF-NH2 (N-terminus assumed; SMILES CC(C)C[C@H](NC(=O)[C@H](CC(=O)O)NC(=O)[C@H](CCCCN)NC(=O)[C@H](Cc1ccc(O)cc1)NC(=O)[C@H](Cc1ccc(O)cc1)NC(=O)[C@H](CCCNC(=N)N)NC(=O)[C@H](CC(N)=O)NC(=O)[C@H](Cc1c[nH]c2ccccc12)NC(=O)[C@H](CCC(=O)O)NC(=O)[C@H](CCCCN)NC(=O)[C@@H]1CCCN1C(=O)[C@H](CO)NC(=O)[C@H](C)NC(=O)[C@H](CC(=O)O)NC(=O)[C@H](CCCCN)NC(=O)CNC(=O)[C@@H]1CCCN1C(=O)[C@H](CCCCNC(=O)CC[C@H](NC(=O)CC[C@H](NC(=O)CCCCCCCCCCCCCCCCCCC(=O)O)C(=O)O)C(=O)O)NC(=O)[C@H](CCC(=O)O)NC(=O)[C@@H]1CCCN1C(=O)[C@H](CCCCN)NC(=O)[C@@H]1CCCN1)C(=O)N[C@@H](CCCNC(=N)N)C(=O)N[C@@H](Cc1c[nH]cn1)C(=O)N[C@@H](Cc1ccc(O)cc1)C(=O)N[C@@H](CC(C)C)C(=O)N[C@@H](CC(N)=O)C(=O)N[C@@H](Cc1c[nH]c2ccccc12)C(=O)N[C@@H](CC(C)C)C(=O)N[C@H](C(=O)N[C@@H](CCCNC(=N)N)C(=O)N[C@@H](CCC(N)=O)C(=O)N[C@@H](CCCNC(=N)N)C(=O)N[C@@H](Cc1ccccc1)C(N)=O)[C@@H](C)O) [Compound A71] | 10.7 -Log(EC50, M) | 8.8 -Log(EC50, M)
8 | PKPEKPGKDASPK([γGlu-γGlu-C20 diacid])EWNRYYKDLRHYLNWLTRQRF-NH2 (N-terminus assumed; SMILES CC(C)C[C@H](NC(=O)[C@H](CC(=O)O)NC(=O)[C@H](CCCCN)NC(=O)[C@H](Cc1ccc(O)cc1)NC(=O)[C@H](Cc1ccc(O)cc1)NC(=O)[C@H](CCCNC(=N)N)NC(=O)[C@H](CC(N)=O)NC(=O)[C@H](Cc1c[nH]c2ccccc12)NC(=O)[C@H](CCC(=O)O)NC(=O)[C@H](CCCCNC(=O)CC[C@H](NC(=O)CC[C@H](NC(=O)CCCCCCCCCCCCCCCCCCC(=O)O)C(=O)O)C(=O)O)NC(=O)[C@@H]1CCCN1C(=O)[C@H](CO)NC(=O)[C@H](C)NC(=O)[C@H](CC(=O)O)NC(=O)[C@H](CCCCN)NC(=O)CNC(=O)[C@@H]1CCCN1C(=O)[C@H](CCCCN)NC(=O)[C@H](CCC(=O)O)NC(=O)[C@@H]1CCCN1C(=O)[C@H](CCCCN)NC(=O)[C@@H]1CCCN1)C(=O)N[C@@H](CCCNC(=N)N)C(=O)N[C@@H](Cc1c[nH]cn1)C(=O)N[C@@H](Cc1ccc(O)cc1)C(=O)N[C@@H](CC(C)C)C(=O)N[C@@H](CC(N)=O)C(=O)N[C@@H](Cc1c[nH]c2ccccc12)C(=O)N[C@@H](CC(C)C)C(=O)N[C@H](C(=O)N[C@@H](CCCNC(=N)N)C(=O)N[C@@H](CCC(N)=O)C(=O)N[C@@H](CCCNC(=N)N)C(=O)N[C@@H](Cc1ccccc1)C(N)=O)[C@@H](C)O) [Compound A70] | 10.4 -Log(EC50, M) | 8.7 -Log(EC50, M)
9 | PKPEAPGK([γGlu-γGlu-C20 diacid])DASPEKWNRYYKDLRHYLNWLTRQRF-NH2 [Compound A67] | 10.3 -Log(EC50, M) | 8.5 -Log(EC50, M)
10 | PKPEAPGK([γGlu-γGlu-C20 diacid])DASPKEWDRYYKDLRHYLNWLTRQRF-NH2 [Compound A76] | 10.4 -Log(EC50, M) | 8.9 -Log(EC50, M)
11 | K([γGlu-γGlu-C20 diacid])PKPEAPGKDASPEEWNRYYADARHYLNWLTRQR[NMeY]-NH2 (N-terminus assumed; SMILES CC(C)C[C@H](NC(=O)[C@H](Cc1ccc(O)cc1)NC(=O)[C@H](Cc1c[nH]cn1)NC(=O)[C@H](CCCNC(=N)N)NC(=O)[C@H](C)NC(=O)[C@H](CC(=O)O)NC(=O)[C@H](C)NC(=O)[C@H](Cc1ccc(O)cc1)NC(=O)[C@H](Cc1ccc(O)cc1)NC(=O)[C@H](CCCNC(=N)N)NC(=O)[C@H](CC(N)=O)NC(=O)[C@H](Cc1c[nH]c2ccccc12)NC(=O)[C@H](CCC(=O)O)NC(=O)[C@H](CCC(=O)O)NC(=O)[C@@H]1CCCN1C(=O)[C@H](CO)NC(=O)[C@H](C)NC(=O)[C@H](CC(=O)O)NC(=O)[C@H](CCCCN)NC(=O)CNC(=O)[C@@H]1CCCN1C(=O)[C@H](C)NC(=O)[C@H](CCC(=O)O)NC(=O)[C@@H]1CCCN1C(=O)[C@H](CCCCN)NC(=O)[C@@H]1CCCN1C(=O)[C@@H](N)CCCCNC(=O)CC[C@H](NC(=O)CC[C@H](NC(=O)CCCCCCCCCCCCCCCCCCC(=O)O)C(=O)O)C(=O)O)C(=O)N[C@@H](CC(N)=O)C(=O)N[C@@H](Cc1c[nH]c2ccccc12)C(=O)N[C@@H](CC(C)C)C(=O)N[C@H](C(=O)N[C@@H](CCCNC(=N)N)C(=O)N[C@@H](CCC(N)=O)C(=O)N[C@@H](CCCNC(=N)N)C(=O)N(C)[C@@H](Cc1ccc(O)cc1)C(N)=O)[C@@H](C)O) [Compound A4] | 8.7 -Log(EC50, M) | 7.3 -Log(EC50, M)

Reference: patent US20250084142A1 (INTARCIA THERAPEUTICS, published 2025)
